Two substances from patent US20220145332 can be followed below.

The data set relates to hsSB (high-solubility Sleeping Beauty transposase, recombinant) (artificial). The data set is described as follows: cell_activity. To be noted: HeLa, 3 weeks.

With “Venus transposon minicircle (SB LE/RE ends)”, the activity (% Venus-positive cells) (hsSB added to culture medium, up to 3.31% in iPSCs (FIG. 9)) was less than 12.

On to “Venus transposon plasmid (SB LE/RE ends)”, for which the activity (% Venus-positive cells) (protein electroporation, 20 ug hsSB, maximum efficiency, also active in CHO and mESC) was found to be 42.
